What was measured:
topoisomerase II = details: prior art, literature; cited from earlier work
[1] = biological target: T1, human topoisomerase II alpha (Homo sapiens, UniProt P11388); experiment: relaxation of supercoiled plasmids, topoisomerase II activity assay; type: biochemical; details: peptide concentration of 0.5 μM
From the text: (§1) Two enzymatic assays make it possible to estimate the effect of the pentides on topoisomerase II activity: relaxation of supercoiled plasmids and decatenation of kinetoplast DNA (Wang, J. C., An. Rev. Biochem., 54: 665-697, 1985; Maxwell, A., Advances in Protein Chemistry, 38: 69-107, 1986; Liu, L. F., Cell, 19: 697-707, 1980).

[2] = biological target: T2, topoisomerase II of yeast (Saccharomyces cerevisiae, UniProt P06786); experiment: as above; type: biochemical; details: peptide concentration of 0.5 μM
T2 sequence (P06786 1-1428): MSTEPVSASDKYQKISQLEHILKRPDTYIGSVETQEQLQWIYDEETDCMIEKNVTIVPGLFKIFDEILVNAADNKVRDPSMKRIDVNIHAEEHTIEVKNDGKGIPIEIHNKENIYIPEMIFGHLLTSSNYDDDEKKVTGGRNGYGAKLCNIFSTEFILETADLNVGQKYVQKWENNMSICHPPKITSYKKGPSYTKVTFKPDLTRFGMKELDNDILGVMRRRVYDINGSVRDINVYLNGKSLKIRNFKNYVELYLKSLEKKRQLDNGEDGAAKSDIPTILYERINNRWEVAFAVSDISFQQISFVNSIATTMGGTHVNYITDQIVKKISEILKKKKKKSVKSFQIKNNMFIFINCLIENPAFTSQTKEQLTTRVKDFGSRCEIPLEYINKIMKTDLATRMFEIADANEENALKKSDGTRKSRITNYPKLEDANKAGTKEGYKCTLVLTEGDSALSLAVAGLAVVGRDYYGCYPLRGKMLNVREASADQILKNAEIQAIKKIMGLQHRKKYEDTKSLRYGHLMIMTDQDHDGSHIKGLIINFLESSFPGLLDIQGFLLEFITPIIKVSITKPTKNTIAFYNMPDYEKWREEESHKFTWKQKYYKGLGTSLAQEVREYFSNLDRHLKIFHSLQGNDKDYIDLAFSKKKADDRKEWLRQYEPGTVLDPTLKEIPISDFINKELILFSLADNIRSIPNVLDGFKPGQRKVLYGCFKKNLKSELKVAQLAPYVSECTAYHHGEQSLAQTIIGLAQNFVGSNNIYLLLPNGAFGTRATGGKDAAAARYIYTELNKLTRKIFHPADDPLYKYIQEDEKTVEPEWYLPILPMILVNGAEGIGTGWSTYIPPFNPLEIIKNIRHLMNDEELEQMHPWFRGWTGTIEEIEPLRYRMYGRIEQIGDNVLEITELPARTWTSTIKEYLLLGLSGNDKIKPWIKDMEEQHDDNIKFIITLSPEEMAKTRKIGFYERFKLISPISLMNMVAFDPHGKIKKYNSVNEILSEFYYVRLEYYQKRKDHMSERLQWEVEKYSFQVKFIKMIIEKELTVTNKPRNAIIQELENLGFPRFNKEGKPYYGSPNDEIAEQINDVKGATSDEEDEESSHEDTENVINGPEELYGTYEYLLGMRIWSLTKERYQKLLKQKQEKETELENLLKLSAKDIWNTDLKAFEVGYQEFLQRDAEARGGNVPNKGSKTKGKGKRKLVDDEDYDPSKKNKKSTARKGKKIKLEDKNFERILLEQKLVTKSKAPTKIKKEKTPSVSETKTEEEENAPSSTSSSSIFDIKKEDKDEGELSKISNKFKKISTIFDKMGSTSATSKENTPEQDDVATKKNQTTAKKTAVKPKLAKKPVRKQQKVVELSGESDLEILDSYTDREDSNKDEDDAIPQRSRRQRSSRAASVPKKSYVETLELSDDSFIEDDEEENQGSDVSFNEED
From the text: as §1

[3] = biological target: T1, human topoisomerase II alpha; experiment: decatenation of kinetoplast DNA, topoisomerase II activity assay; type: biochemical; details: peptide concentration of 0.5 μM
From the text: as §1

[4] = biological target: T2, topoisomerase II of yeast; experiment: as above; type: biochemical; details: peptide concentration of 0.5 μM
From the text: as §1

T1 sequence (P11388 whole entry): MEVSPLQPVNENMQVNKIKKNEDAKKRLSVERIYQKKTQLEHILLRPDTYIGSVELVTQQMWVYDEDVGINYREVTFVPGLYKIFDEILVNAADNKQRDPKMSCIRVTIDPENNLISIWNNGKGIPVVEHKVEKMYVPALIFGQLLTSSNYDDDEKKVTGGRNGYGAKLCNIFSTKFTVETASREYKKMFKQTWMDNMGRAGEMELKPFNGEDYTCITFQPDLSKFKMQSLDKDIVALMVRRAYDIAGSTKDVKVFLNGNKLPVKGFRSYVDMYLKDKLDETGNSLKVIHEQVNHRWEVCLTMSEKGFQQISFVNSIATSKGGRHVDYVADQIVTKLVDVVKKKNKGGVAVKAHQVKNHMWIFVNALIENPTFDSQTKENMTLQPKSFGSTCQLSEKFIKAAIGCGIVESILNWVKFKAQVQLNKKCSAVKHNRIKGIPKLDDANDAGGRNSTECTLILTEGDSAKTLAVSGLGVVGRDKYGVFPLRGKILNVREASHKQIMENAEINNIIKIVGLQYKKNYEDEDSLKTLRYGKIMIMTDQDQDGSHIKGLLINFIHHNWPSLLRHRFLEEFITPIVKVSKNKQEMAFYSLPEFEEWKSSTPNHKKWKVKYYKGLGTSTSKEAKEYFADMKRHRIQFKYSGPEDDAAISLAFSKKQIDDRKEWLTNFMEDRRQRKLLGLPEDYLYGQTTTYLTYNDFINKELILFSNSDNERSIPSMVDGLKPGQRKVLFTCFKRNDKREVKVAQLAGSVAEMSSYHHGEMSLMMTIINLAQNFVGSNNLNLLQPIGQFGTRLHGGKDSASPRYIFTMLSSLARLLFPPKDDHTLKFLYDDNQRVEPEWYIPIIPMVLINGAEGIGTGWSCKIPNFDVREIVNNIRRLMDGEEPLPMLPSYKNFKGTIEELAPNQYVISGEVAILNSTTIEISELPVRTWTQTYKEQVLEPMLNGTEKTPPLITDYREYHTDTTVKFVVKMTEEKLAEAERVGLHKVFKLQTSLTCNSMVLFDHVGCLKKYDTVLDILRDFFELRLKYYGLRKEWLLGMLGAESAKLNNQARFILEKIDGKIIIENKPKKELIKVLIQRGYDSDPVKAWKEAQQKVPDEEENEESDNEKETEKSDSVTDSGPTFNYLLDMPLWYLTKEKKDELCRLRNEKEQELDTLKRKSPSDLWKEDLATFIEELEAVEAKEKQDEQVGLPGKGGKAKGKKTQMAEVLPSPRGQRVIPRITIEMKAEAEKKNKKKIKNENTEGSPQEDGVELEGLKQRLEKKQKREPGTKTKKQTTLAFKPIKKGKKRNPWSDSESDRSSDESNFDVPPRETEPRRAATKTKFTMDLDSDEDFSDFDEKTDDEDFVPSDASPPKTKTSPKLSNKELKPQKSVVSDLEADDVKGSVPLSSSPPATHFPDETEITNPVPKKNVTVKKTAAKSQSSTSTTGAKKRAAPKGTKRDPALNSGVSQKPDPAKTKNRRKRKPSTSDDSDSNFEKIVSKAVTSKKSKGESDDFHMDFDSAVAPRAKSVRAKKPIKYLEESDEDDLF

sequence 1013 to 1041 of human topoisomerase II alpha: topoisomerase II fragment, corresponding to sequence 1013 to 1041 of human topoisomerase II alpha, described by Frére Gallois et al.
inhibitory activity for topoisomerase II (topoisomerase II): inhibitory activity

Thr-Gin-Leu-Asp-Ile-Leu-Arg-Asp-Leu-Phe-Glu-Leu-Arg -Leu-Lys-Tyr-Tyr-Gly-Leu-Arg-Lys-Glu-Phe-Leu-Leu-Gin-Met -Leu-Gly (TQLDILRDLFELRLKYYGLRKEFLLQMLG) [example 1]
inhibition of topoisomerase II activity (relaxation of supercoiled plasmids) [1]: totally inhibits
inhibition of topoisomerase II activity (relaxation of supercoiled plasmids) [2]: totally inhibits
inhibition of topoisomerase II activity (decatenation of kinetoplast DNA) [3]: totally inhibits
inhibition of topoisomerase II activity (decatenation of kinetoplast DNA) [4]: totally inhibits
